Measured values as given in the nanobody polyreactivity screen of Harvey et al. (2022).

Assay: yeast display, Sf9 membrane polyspecificity reagent, FACS + sequencing; frameworks hold sequencing errors
How it was run: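 Nanobodies came from a synthetic yeast display library in Saccharomyces cerevisiae BJ5465, induced with galactose for 36–48 hours and stained for 1 hour at 4 °C with 10% biotinylated, detergent-solubilized Sf9 membrane reagent. Cells were enriched on streptavidin microbeads and then FACS-sorted, with low and high (top ~1%) gates set on anti-HA fluorescence for expression and streptavidin fluorescence for reagent binding. Each polyreactivity label reflects the gate a clone came from. Genes were amplified by colony PCR, sequenced by MiSeq 2 × 250 and filtered by CDR length.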

Sequence: QVQLVESGGGLVQAGGSLRLSCAASGIIFPYNAMGWYRQAPGKERELVAAITYRDGSTYYADSVKGRFTISRDNAKNTVYLQMNSLKPEDTAVYYCAADRYVYWDLYGYWGQGTQVTVSS
- polyreactivity (PSR sort gate): low polyreactivity

Sequence: KVQLLYSAGGLVHAGGSLRLSCAASGNIFRSYAMGWYRQAPGKERELVAAISSRGGSTYYADTVKVRFTISRDNAMNTVYLQMNSLKPEDTAVYYCNAPSTQQGPKYDYWGQGTQVTVSS
- polyreactivity (PSR sort gate): low polyreactivity

Sequence: QVQLVESGGGLVQAGGSRLICAASGLIFIWYTMGWYRQAPGKERELVAAIDSSGGNTYYADSLKGRFSISRDNAKNTVYLQMNSLKPEDTAVYYCAKDVGHGAGNLMGYWGQGTQVTVSS
- polyreactivity (PSR sort gate): low polyreactivity

Sequence: QVQLVESGGGLVQAGGSLRLSCAASGFIFARYAMGWYRQAPGKERELVASITRRGGSTYYADSVKGRFTISRDYEKITVYLQMNSLKPEDTAVYYCARPNLLSGDYWGQGTQVTVSS
- polyreactivity (PSR sort gate): high polyreactivity

Sequence: QVQLVESGGGLVQAGGSLRLSCAASGSISTPYTMGWYRQAPGKERELVADISWIGDTTSYADSVKGRFTISRDNAKNTVYLLMNSLKPEDTAVYYCNAEHRGYEYWGQGTQVTVSS
- polyreactivity (PSR sort gate): low polyreactivity

Sequence: QVQHVESGGGLVQAGGSLRLSCAASGRTVYGYTMGWDRQAPGKERELVAAISYSGDSTYYADSVKGRFTISRDTAKNTVYFPMNSLKPEYTAVYYCAVRRYARFNYHYWGQGPQVTVSS
- polyreactivity (PSR sort gate): high polyreactivity

Sequence: QVQLVESGGGLVQAGGSLRLSCAASGRTFRPNAMRWYRQAPGKERELVASITRRGGTTYYADSVKGRFTISRDNAKNTVYLQMNSLKPEDTAVYYCNAPPGYSSTRNGYWGQGTQVTVSS
- polyreactivity (PSR sort gate): high polyreactivity

Sequence: QVQLVESGGGLVQAGVSLRLSCAASGSIFVYNAMGWYRQAPGKERELVAAISSSGTRTYYADSVKARFTISRDNAKNTVYLQMNSLKPEDTAVYYCAAYYVPWGTLYHLDYWGQGTQVTVSS
- polyreactivity (PSR sort gate): high polyreactivity

Sequence: QVQLVESGGGLVQARGSLRLSSAAYGRTLYSYAMGWYRQAPGKERELVATIRRSGGSTNYADSVKGRFTISRDNAKNTVYLQMNSLKPEDTAVYYCAAVSFKPEYYYWGQGTQVTVSS
- polyreactivity (PSR sort gate): high polyreactivity

Sequence: QVQLVESGGGLVQAGGSLRLSCAASGTIFWIYAMGWYRQAPGKERELVATITRRGGSTYYADSVKGRFTISRDNATNTVYLQMNSLKPEDTAVYFCATEPGYTYLTSYKYDYWGQGTQVTVSS
- polyreactivity (PSR sort gate): low polyreactivity

Sequence: QGQLVESGGGLVQAGGSLRLSCAASGFTFSYNVMGWYRQAPGKERELVPAINWSGGRTYYADSVKGRFTISRDNAKNTVYLQMNSLKPEDTAVYYCAARVYRGTARLIYDYWGQGTQVTVSS
- polyreactivity (PSR sort gate): high polyreactivity

Sequence: QVQLVESGGGLVQAGGSLRLSCAASGFTFRWYAMGWYRQAPGKERELVAAITYRGGRTYYADSVKGRFTISRDNAKNTVYLQMNSLKPEDTAVYYCAAKLSLNGRYDYWGQGTQVNVSS
- polyreactivity (PSR sort gate): high polyreactivity

Sequence: QVQLVESGGGLVQAGGSLRLSCAASGFIIKFYAMGWYRQAPGKERELVATITISSGTTYYADSVKGRFTISRDTAKNTVYLQMNSLKPEDTAVYYCAASTLPAWPYDGPAGPRYDYWGQGTQVTVSS
- polyreactivity (PSR sort gate): low polyreactivity

Sequence: QVQLVESGGGLVQAGGSLRVSCAASGLNFYGNAMGWYRQAPGKERELVAAISWSGGNTSYADSVKGRFTISRDNAKNTVYLQMNSLKPDDTAVYYCNADSLPSVERYGYWGQGTQVTVSS
- polyreactivity (PSR sort gate): low polyreactivity

Sequence: QVQLVESGGGLVQAGGSLLLSCAASGLIFDPYAMGWYRQAPGKERELVADISSGGSTNYADSVKGRFTISRDNAKNTVYLQMNSLKPEDTAVYYCNKTIILDGYYFSLTLYDSWGQGTQVTVSS
- polyreactivity (PSR sort gate): low polyreactivity

Sequence: QVQLVDSGGGLVQAGGSLRLSCAASGSIFPDNAMGWYRQAPGKEWEFVAAINWSTGTTYYADSVKGRFTISRDNAKNTVYLQMNSLKPEDTAVYYFNASDQAKYDYWGQGTQVTVSS
- polyreactivity (PSR sort gate): low polyreactivity

Sequence: QVQLVESGGGLVQAGGSLRLSCAASGRTFAWYAMGWYRQAPGKERELVAAISNVGSTYYADSVKGRFTISRDNAKNTVYLHMNSLKPEHTAVYYCNADAVSTDGREYWGQGTQVTVSS
- polyreactivity (PSR sort gate): low polyreactivity

Sequence: QVQLVESGGGLVQAGGSLRLSCAASGGILRQNTMGWYRQAPGKETELVAAISSSGGRTYYADSVKGRFTISRDNAKNTVYLQMNSLKPEDTAVYYCARGYSWSVGYPRVHDMDYWGQGTQVTVSS
- polyreactivity (PSR sort gate): high polyreactivity

Sequence: QVQLVESGGGLVQAGGTLRLSCAASGRIFPYYAMGWYRQAPGKERELVAAINSGGSTYYADSVKGRFTISRDNEKNTVYLQMNSLKPEDSAVYYCAVDPGYYDEYNYWGEGTQVTVSS
- polyreactivity (PSR sort gate): low polyreactivity

Sequence: QVQLVESGGGLVQAGGSLRLSCAASGLTLRCNTMGWYRQAPGKERELVADITASAGSTYYADSVKGRFTISRDNAKNTVYLQMISLKPEDTAVYYCAARVYIAYISMDHWGQGTQVTVSS
- polyreactivity (PSR sort gate): low polyreactivity

Sequence: QDKLVESGGGLVQEGGRLRLSCAASGRIFGNYAMGWYRQAPGKERELVAAIDLSGDSTYYADSVKGRFTISRDNAKYTVYLQMKSLKPEDTAVYYCAATDWFSEYYWGQGTQETVSS
- polyreactivity (PSR sort gate): low polyreactivity

Sequence: QVQLVESGGGLVQAGGSLRLSCAASGFTFAVYVMGWYRQAPGKERELVATISISVGSTYYADSVKGRFTISRDNAKNTVYLQMNSLKPEDTAVYYCNADPPPEYYPDKDNYWGQGTQVTVSS
- polyreactivity (PSR sort gate): low polyreactivity

Sequence: QVQLQESVGGLVQAGGSLRLSCAASGNIFPTDRMGWYRQAPGKELEFVATISHGGSTNYADSVKGRFTISRDNAKNTVYLQMNSLKPEDTAVYYCAVWSLGRWRHYYWGQVTQVTVSS
- polyreactivity (PSR sort gate): low polyreactivity

Sequence: QVQLVESGGGLVQAGGSLRLSCAASGSIFYENAMGWYRQAPGKERELVAAISRSGGSTYYADSVKGRFTISRDNAKNTVSLQMNSLKPEDTAVYYCAADVYVFIGDYWGQGTQVTVSS
- polyreactivity (PSR sort gate): low polyreactivity

Sequence: QVQLVESGGGLVQAGGSLRLSCAASGFTFAYYAMGWYRQAPGKERELVAGISWRGGRTYYADSVKGRFTISRDNAKNTVYLQMNSLKPEDTAVYYCAKQPGNFGRFDYWGQGTQVTVSS
- polyreactivity (PSR sort gate): high polyreactivity

Sequence: QVQLVESGGRLVQAGGSLRLSCAASGLTFPVYAMGWYRQAPGKEREFVASISGRGASTYYADSVKGRFTISRDNAKNTVYLQMNSLKPEDTAVYYCNADVWLLSYFPEYDYWGQGTQVTVSS
- polyreactivity (PSR sort gate): low polyreactivity

Sequence: QVQLVESGGGLVQAGGSLRLSCAASGSTFGANAMGWYRQAPGKEREFVAAISRSGVRTYYADSVKGRFTISRDNAKNTVYVQMNSLKPEDSAVYYCAADGYWLTYTRYDYWGQGTQVTVSS
- polyreactivity (PSR sort gate): low polyreactivity

Sequence: QVQLVESGGGLVQAGGSLRLSCAASGRIFGHNAMGWYRQAPGKERELVARISSTGSTKYADSVKGRFTISRDNAKNTVYFQMNSLKPEDTAVYYCAAVDRLRSIRYDYWGQGTQVTVSS
- polyreactivity (PSR sort gate): high polyreactivity

Sequence: QVQLVESGGGLVQAGGSLRLSCAASGIIFDINAMGWYRQAPGKERELVAAITTSVDSTYYADSVKGRFTISRDNAKNTVYLQMNSLKPEDTAVYYCAVAFVQFTQYDYWGQGTQVTVSS
- polyreactivity (PSR sort gate): low polyreactivity

Sequence: QVQLVESGGGLVQAGGSLRLSCAASGSTFAQNAMGWYRQEPGKERELVAAISRRGGSTYYADSVKGRFTISRDNAKNTVYLQMISLKPEDTAVYYCAADQPVRQLHRDDYWGQGTQVTVSS
- polyreactivity (PSR sort gate): low polyreactivity

Sequence: QVQLVESGGGLVQAGGSLRLSCAASGFTFGSYAMGWYRQAPGKEREFVAAISLGGARTYYADSVKGRFTISRDNAKNTVYLQMNSLKPEDTAVYYCNARGIGRSTKWSSRDYWGQGTQVTVSS
- polyreactivity (PSR sort gate): high polyreactivity

Sequence: QVQLVESGGGLVQAGGSLRLSCAASGSTLGRYTMGWSRQAPGKERELVAAIRASGTSTYYADSVKGRFTISRDNAKNTVYLQMNSLKPEDTAVYYCNALQFGTVRLDSWGLGTQVTVSS
- polyreactivity (PSR sort gate): low polyreactivity
